# Source: a protein production outcome set (Wang et al. 2014)
# Test: label from the status in PepcDB records
# 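Also: failed if final PepcDB status was selected cloned or expressed and not failed if soluble or beyond.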
row,Sequence,protein production
1,MTICCPVIALAFALNRKPVSAPTARIAVLARNTSMSFASLGLIDPLLRNLQDLNYQTPTPVQVKAIPAVLGGKDVMAGAQTGTGKTAGFALPLLQRLVQQGPAVSSNRARVLVLVPTRELAEQVLQSFVAYGKGLDLRFLAAYGGVSINPQMMKLRKGVDVLVATPGRLLDLNRQNAVQFDQVETLVLDEADRMLDLGFARELNAVFAALPVQRQTLLFSATFTDDIRTMAASILRSPVNISVSPPNVTGSKIKQWVVTVDKRNKPDLFMHLVAENNWDHALVFVKTRNGVEYLAAMLDEAGYAVDTIHGDKPQPARLRALERFKTGEVQMLVATDVAARGLDIDDLPLVINVDLPIVAQDYVHRIGRTGRAGASGVAVSLVCADEAPQLAAIEALIGQTLRREEEPGFEAEHRVPETSSTGQIIKKPKKPKKPKVPQGGAAATPVAGKKPQPQGGDGKRKGGGAAGKGASVLNGSPFSVQKPRGKGKPAGKAVAGARKPAGKPAGGRGKH,failed
2,MTIEKKKNKIIFTRTFSAPINKVFDAYTKRELFEQWFHPQDASVTVYDFNATKGGNAFYAIQAPQMTSYTIAEYLQVDAPYYIEYLDYFATSKGEKDTSMPGMHITLNFEEVKGKTTVTSTSTFPTESAAQQAIDMGVETGMNSTLNQLEKLLNQKLEHHHHHH,not failed
3,MTIEPTQSPSSEPEVHSGEDFVHIDDPRPTGDISLSDSIVNVEKDELLDEAAEEEFRGSDSVFSGGDGGGADDDGGECSSEATKVELPEELAKSVVILTCESTADGGSCDVYLVGTAHVSKVILVLRFHLVLSLQRSCLGIELIFW,failed
4,MTIIKYIKFVVIIVIVTIVFSCSKNEAGNSEYDPSLPISLTDFFPIQGGMATRMVIEGANFGTDLSQIKVFFNQKEASILNVKNSIIYLLVPKLPGNDCIVTVKVGNQEARFTRNFQYIENYSVTTIAGQPGTNLFVEGTLAAAQFGPVQHLAIDDENNLFITERNGSDGKGTCSVLNEESGTVTFLFKASDNLNVPTVNAQTQNVYIPLDGGYTFYELNPVNQWIAKSRLVLHPSKEQQEAGMDDFEINWKHSLAFSRYDNMIYTRSYGGDLIKVDPETRVGQKIGNFFPNTDSFIVAHPTQPEILYIAYAAKHVIYTYNIETGEHKLFAGAFGQSGWNDGIATDAEFNSPRQMSLDMEGNIYIADSGNHCIRMIDKNGIVTTPIGQPGEAGYADGSPDMALLNDPRGVAVNSEGDVYIADLGNRCIRKLTLQLEHHHHHH,failed
5,MTIISTIFFFSFSVFFVIRYLKLKKIYDLLMIFVGLYAGLINMKLMSLSTTVSYVLDTIVIVLVIISVILFLKDKKNY,failed
6,MTIMAGCMLVLPVMDAIAKYMAVSVGMSPAQVTFYRFFFQVLCTLPLLLVVSPGALFSAKRPWMNCLRGVLHASASLMFFAAVKYMPLADVFAIYFVEPFMLTMMSALFLGDRVGWKRWTAIVVGFGGALIVIQPSFEIFGWTSLLPVACAFFYTLYLFLNRAIGDADSPLVMQTMSGIAGTLFMAAALFAGDALGDKDFAVSLPQSAFALVLLVLLGSLSGYMHLLIVRAFRLAPLSLLAPFQYFEIISATILGYALFSDFPTPSKWLGILIIVASGLFIIWRERQQPASTPPLEGQ,failed
7,MTISSRKAALAAVLLASVAVPAAAEPVFNRIASFPVAENLPGDKDKLSQTSAEIITATDDGNTLIYSDSPLGAIGFIDITDAKAPKSGGALMMDGEPTSVTSSAGKALVAVNTSESKARPSGRLAIVDVATKKIENTCDLGGQPDSIALNKDKTLGTIAIEDERDEDVNDGNIPQMPAGDLVVFRVKNGAVDCGSIKHVTLTDLAGVVPEDPEPEFVAFNGLNEIALTLQENNEIVIIDANTAEVKTHFSAGSVDLTGIDTKRDGALKFTGESKGVLREPDAVKWLDDNRLVVANEGDYHGGSRGFTIFDKTGKLLYESGASFERAVAHIGHYPESRSESKGVEPEGLEAAKFGDDQYFFLLAERASVVGVYKDTGADPELVQLLPSGISPEGGVAIPARNLFATANELDLGKDGGVRSHVMIYERSEGEKAYPQIVSAEKDGNPIGFAALSGLAAVPGKPGMLYAVSDSVLGSQPTIYTIDATKKPAVITDRLVVKRDGAPAQKLDIEGIAAAADGSFWLASEGYSERLVPHALYNVNAKGDIRAEIALPKELTANEIRFGFEGVTIIGTGDDATLWMAVQREWGDDEKGFVKLVSYNPKKKEWGAVRYPLDKTESGWVGLSEISAHGDSVYIIERDNLVGDAAKLKKLYKVAISELKPAKLGGELPVVKKTEAHDFLGELKTATNGYVLDKLEGFTFDASGKPYAVTDNDGVSDSSGETLFFPVELSATN,failed
8,MTITSNISVQNDNLVVQGKTILTKIPDNIILTPVTGNGFVSGSFIGATFEQSKSLHVFPIGVLEGLRFMCCFRFKLWWMTQRMGSCGKDIPLETQFMLLESKDEVEGNGDDAPTVYTVFLPLLEGQFRAVLQGNEKNEIEICFESGDKAVETSQGTHLVYVHAGTNPFEVIRQSVKAVERHMQTFHHREKKKLPSFLDWFGWCTWDAFYTDVTAEGVDEGLKSLSEGGTPPKFLIIDDGWQQIENKEKDENCVVQEGAQFATRLVGIKENAKFQKSDQKDTQVSGLKSVVDNAKQRHNVKQVYAWHALAGYWGGVKPAASGMEHYDSALAYPVQSPGVLGNQPDIVMDSLAVHGLGLVNPKKVFNFYNELHSYLASCGIDGVKVDVQNIIETLGAGLGGRVSLTRSYQQALEASIARNFTDNGCISCMCHNTDGLYSAKQTAIVRASDDFYPRDPASHTIHIASVAYNSLFLGEFMQPDWDMFHSLHPTAEYHAAARAVGGCAIYVSDKPGNHNFDLLRKLVLPDGSVLRAKLPGRPTRDCLFADPARDGIRCWLVQGNEEEPDP,failed
9,MTIVGLKKTYLGLIDKKTGKIIAGPEGLTTDGLYMSNPKDLGTASANITNIAAAGTQKFGDNGLVDVVSSKSFPQVAAVWNNLPFDIKAKIKGEVSDKKGGYVQSQDLPQVALIIESELIDRSHSIFYAFGNGHMTETALNIQTDNAAQNRVEDALTYQSLAFEAWNNQGMKTFNSADSGFDKTAMLKEVMGGYAASGLGVLEHHHHHH,failed
10,MTIYHFVGIKGSGMSALAQILHDKGFQVQGSDVDKYFFTQKALEEKQIPIMTFSADNIQEGLTIIAGNAFPDTHEEIERALELGLSVIRYHKFLGQLIDGYTSIAITGSHGKTSTTGLLSHVVGAIRPTSYLIGDGTGSGTKDAEYFALEACEYQRHFLAYKPTYAIMTNIDWDHPDYFKSVDDVFNAFETLGKQVKKAVFALGDDAELRKLTLDIPIIYFGFGEENEFQAKNVIKETTGTKFDVYHREEFLSSFEIPAYGDHNVLNALSVIALCDYEGLPVEDVKNELKTFEGVKRRFSITEKGNQVLVDDYAHHPSEIRATVNAARQKYPDKKVVAVFQPHTFTRTRTFLQGFADSLNLADEVYLCDIFGSAREKTGNLTIADLAHKTKGNHIIKEEHTEELLKYPEAVILFMGAGDVQKFQAAYEKVLDHEFLTEADLKKSAIN,failed
11,MTIYLHSIQIGVLLFFIFLFISLIPYLIVQYRRYGRINFWRFFVNFSFILYLICAYAMTIFPLPPVSEVAKMTGPKQNLVPFEFVRQFILYSPFNINEPSTWLAALKDSTFIQPFFNLLLTLPFGLYLRYLFKRSFKQTFVLSFLLTLSFELIQRSALFGLYPRPYRLFDVDDLMINTLGSLIGFGIAVTFSRFLPDLDATKAESSRVSLSRRFIAFLVDLVLIFIIGSLFLPIGYYSELIILGLVPLVLKATPGQLLLRIQIKAKNRFRIALRQFLSFGNFALIISAEYFLQRSGTIPQDQLGQNFLLILLFLGLSLLPLLDVLIAFLSKTRKLWYERVSDTEMIAKLKTNEE,failed
12,MTIYTLSHGSLKLDVSDQGGVIEGFWRDTTPLLRPGKKSGVATDASCFPLVPFANRVSGNRFVWQGREYQLQPNVEWDAHYLHGDGWLGEWQCVSHSDDSLCLVYEHRSGVYHYRVSQAFHLTADTLTVTLSVTNQGAETLPFGTGWHPYFPLSPQTRIQAQASGYWLEREQWLAGEFCEQLPQELDFNQPAPLPRQWVNNGFAGWNGQARIEQPQEGYAIIMETTPPAPCYFIFVSDPAFDKGYAFDFFCLEPMSHAPDDHHRPEGGDLIALAPGESTTSEMSLRVEWL,not failed
